± gives the standard deviation of the averaged measurements.
System: ATP
Assay: switch fluorescence ratio, 500 uM ATP over buffer (Cy3 cluster intensity, sum of 5 cycles each) (fold (ratio)); higher = stronger signal-on switching upon ATP binding; sequences stand for … in TCGTCGGCAGCGTCAGATGTGTATAAGAGACAGTTTTTTTTTTTTTTTTTTTTTTTTT…TC
Details: aptamer strand: ATP DNA aptamer (quencher-CACCTGGGGGAGTATTGCGGAGGAAGG + anchor), 100 nM annealed; ATP concentration: 500 uM
Summary of the method: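 Five buffer/ATP imaging cycles were run on Cy3-labelled switching-strand clusters on a modified Illumina MiSeq flow-cell, with NaOH stripping and re-annealing between cycles. In each cycle, clusters annealed to 100 nM quencher-labelled ATP aptamer were imaged in selection buffer, then after 15 min with 500 uM ATP at 22 °C. Per cluster, the fluorescence ratio is summed target-cycle over summed buffer-cycle Cy3 intensity, averaged per switch-domain sequence. Only clusters within 100-1000 RFU were kept.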
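Also: ATP exposure 15 min at 22 °C before imaging.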

Sequence	switch fluorescence ratio
CAGGGGCGTG	0.9921 ± 0.0079
CAGGGGGATT	1.03 ± 0.042
CAGGGGGGAC	1 ± 0.022
CAGGGGGTCA	0.982 ± 0.015
CAGGGGTACG	0.991 ± 0.042
CAGGGGTGTG	0.996 ± 0.0076
CAGGGGTTTT	1.32 ± 0.54
CAGGGTAGAG	1 ± 0.043
CAGGGTCGGG	0.966 ± 0.035
CAGGGTGAAT	0.9909 ± 0.0056
CAGGGTGAGT	1.01 ± 0.022
CAGGGTGGGG	1.03 ± 0.048
CAGGGTTCCG	1.17 ± 0.28
CAGGTAAGGC	1.04 ± 0.033
CAGGTAAGGT	1.014 ± 0.0035
CAGGTACATA	1.055 ± 0.0086
CAGGTAGGTT	1.02 ± 0.068
CAGGTATAAG	1.01 ± 0.061
CAGGTATTAC	1.11 ± 0.026
CAGGTCCAGT	0.993 ± 0.02
CAGGTCTTGG	1.01 ± 0.03
CAGGTGCGTT	1.58 ± 0.028

Sequence	switch fluorescence ratio
CAGGTGGTGG	1.02 ± 0.02
CAGGTGTCTG	1.13 ± 0.032
CAGGTTCTAC	1.015 ± 0.0032
CAGGTTGGTT	1 ± 0.027
CAGGTTTGTG	1.01 ± 0.018
CAGGTTTTTG	0.983 ± 0.028
CAGTAAAAAG	1.03 ± 0.025
CAGTAAGATC	1.026 ± 0.0056
CAGTACTCTT	1.01 ± 0.03
CAGTAGGCAG	0.95 ± 0.016
CAGTAGTTGC	1.091 ± 0.0086
CAGTATCGCG	0.989 ± 0.005
CAGTATGGGG	0.9664 ± 0.0013
CAGTATGTTT	0.974 ± 0.044
CAGTCATTTT	0.984 ± 0.031
CAGTCCCACG	1.021 ± 0.0053
CAGTCCGTTT	1.02 ± 0.012
CAGTCGGTTT	1.013 ± 0.0088
CAGTCGTCCT	1.028 ± 0.0019
CAGTCTAAGA	1.03 ± 0.056
CAGTCTAAGT	1.02 ± 0.014
CAGTCTTCTT	1.02 ± 0.026

Sequence	switch fluorescence ratio
CAGTCTTTTT	1.03 ± 0.022
CAGTGACTGT	0.98 ± 0.034
CAGTGAGAAC	1.01 ± 0.025
CAGTGATAAA	1.008 ± 0.0066
CAGTGATGGA	1.007 ± 0.0046
CAGTGATTTA	0.981 ± 0.019
CAGTGCATTG	1.01 ± 0.023
CAGTGCGGCT	1.007 ± 0.0046
CAGTGGAGCG	0.964 ± 0.058
CAGTGGCTTC	1.01 ± 0.023
CAGTGGGGTA	0.966 ± 0.012
CAGTGTGAAT	1 ± 0.021
CAGTGTTA	0.985 ± 0.064
CAGTGTTGGG	1.002 ± 0.0016
CAGTTAAAAA	1.03 ± 0.012
CAGTTAGATT	1.01 ± 0.028
CAGTTATCGT	0.986 ± 0.016
CAGTTATGGC	0.999 ± 0.026
CAGTTCAGTA	0.992 ± 0.03
CAGTTCATCG	1.03 ± 0.025
CAGTTCTGGG	0.9872 ± 0.0097
CAGTTCTGTA	1.01 ± 0.038

Sequence	switch fluorescence ratio
CAGTTGCGAG	0.983 ± 0.042
CAGTTGCTCA	1.012 ± 0.0097
CAGTTGGGAT	0.969 ± 0.026
CAGTTGGTTT	0.97 ± 0.02
CAGTTTACCG	1.03 ± 0.019
CAGTTTCGTT	1.02 ± 0.037
CAGTTTGTTA	0.994 ± 0.036
CAGTTTTGAT	0.998 ± 0.019
CAGTTTTGGG	0.9713 ± 0.0016
CATAAAGTAG	1.02 ± 0.014
CATAAATCAA	0.9925 ± 0.006
CATAACATAG	0.995 ± 0.012
CATAACGGGG	0.957 ± 0.04
CATAAGGGTG	1.09 ± 0.038
CATAAGTGGG	0.973 ± 0.03
CATAATCAGG	1.04 ± 0.03
CATAATCTAG	1.03 ± 0.013
CATACAGATC	1.06 ± 0.031
CATACATACG	1.42 ± 0.056

Source: the supplement of paper PMC10126150
